From the DeepSol protein solubility set

Assay: soluble on expression in E. coli; label from the status in PepcDB or PDB records

| Sequence | soluble on expression in E. coli |
| --- | --- |
| MGAGSQTTGAGQKKVQTITVGTGTQFPNICFIDEKGDLTGYDVELIKELDKRLPHYKFTFKTMEFSNLLVSLGQHKVDIVAHQMEKSKEREKKFLFNKVAYNHFPLKITVLQNNDTIRGIEDLKGKRVITSATSNGALVLKKWNEDNGRPFEIAYEGQGANETANQLKSGRADATISTPFAVDFQNKTSTIKEKTVGNVLSNAKVYFMFNKNEQTLSDDIDKALQEIIDDGTLKRLSLKWLGDDYSKEQYLEHHHHHH | soluble |
| MGANGSTEDYNAIAEETRNYQIQEAARRKEHLEALERQDAKRRETLAETTRAQLAAAEAEQKRKDEMQQKMMESNLAAQVARNKRIDNAQNQQNLNIEKEIENSNNWLDKQRTANQAVMAQRYTDHQNVLTREKERLTETEIRLENNLVDAKKMLENTQNQFNDDKIGYHEKKVQQMNENASKIELLVSQTTNLVLEQEKNDIVHKLAIQGMEQRTILNRGAIIQAQSLDSVEREFIDAVNSTRQKGNEVANSISRMGSYAFQLKPEDPVWSRTSQVAYCKKEIQKVDLLLEVLSDNTEEISKQRENRNQEVLRCHAVACLIQNAITTVRNSLNQFGASLQENTFTNCIGYYTDLLEKNKTLTDVIVQLPAVSRSNHTTSAIMYSSQRFAIDVQNDRLALEQKGQLALQNMINGNGGNTT | not soluble |
| MGARCSKLSVCWWPPHFKSPLLENGAAADDGSGVPVFAEYSLDELRVATDGFSPERIVSEHGEKAPNVVYRGTLFSTGRTVAIKRFGRSAWPDSRQFLEEAMAVGQLRSVRLANLIGCCCENGERLLVAEFMPHETLAKHLFHWETKPLSWAMRVRAAFYVAQALEYCSSKGRALYHDLHAYRVLFDVDGNPRLSCFGLMKNSRDGKSYSTNLAFTPPEYLKTGRVIPESVVYSFGTILLDLLSGKHIPPSHALDLIRGKNYLVLMDSCLEGHVSSSDGTELIRLASRCLQYEGRDRPNLKSVVSALGNLQKDASAPSHALLGIQHDKENTERISLSAIAKVYARADLDEVHEMLENDGYCEDERATFEVSFHSWTGQQVSDSILVKKHGDSAFQSKDFATAVECYSRFIDTGVMVSPTMLARRSFVYMVLGKLQEGLADAKKAADISPEWPTAHYLQGMAYLAMGMEPEGHEELKQGAALEAERNAR | soluble |
| MGARQRMVASKGAVLSMLMDAYQKRDRVGLIAFKGDSAELLLPPTSSIELAQKYLQEMPTGGKTPISRGLVKGYEIIKSELRRDPDTCPFMVLISDGRANVSMNGEPPLHEIITIASRLKEEGIQSAVIDTESSMIKFGFAQQISTALGATYLTLENLKADSIVNAVRASAPFEIMMHPGVSSV | not soluble |
| MGAVVVKDLRKRIGKKEILKGISFEIEEGEIFGLIGPNGAGKTTTLRIISTLIKPSSGIVTVFGKNVVEEPHEVRKLISYLPEEAGAYRNMQGIEYLRFVAGFYASSSSEIEEMVERATEIAGLGEKIKDRVSTYSKGMVRKLLIARALMVNPRLAILDEPTSGLDVLNAREVRKILKQASQEGLTILVSSHNMLEVEFLCDRIALIHNGTIVETGTVEELKERYKAQNIEEVFEEVVKCSENF | not soluble |
| MGCMIQSFRCKSTQAMFEGECPQRFSAIQAVAERKLAQLEAAQTLDFLRSPPGNRLEKLAGDREGQWSIRINAQWRICFTWSDLDPADVEIVDYH | not soluble |
| MGCSGGDATACANLAQMYENKKNADSNDKENALQLYAVACQGGDMLACNNLGWMFANGSGVPKDYYKAISYYKFSCENGNDMGCYNLGLMSNVNNIYGIDKAQLSQVDLNYLACNAGDMMGCANLGWIYANGDLGAPLNNHYAAKYFQMACDGGILGSCNNLGVLYQKGLGVPQDDQRALDLFSYACDNGFESSCRNYGNFKEHLLRVNPNYGRLFMPYNSYDIPLEHHHHHH | not soluble |
| MGDIMRPIPFEELLTRIFDEYQQQRSIFGIPEQQFYSPVKGKTVSVFGETCATPVGPAAGPHTQLAQNIVTSWLTGGRFIELKTVQILDRLELEKPCIDAEDECFNTEWSTEFTLLKAWDEYLKAWFALHLLEAMFQPSDSGKSFIFNMSVGYNLEGIKQPPMQQFIDNMMDASDHPKFAQYRDTLNKLLQDDAFLARHGLQEKRESLQALPARIPTSMVHGVTLSTMHGCPPHEIEAICRYMLEEKGLNTFVKLNPTLLGYARVREILDVCGFGYIGLKEESFDHDLKLTQALEMLERLMALAKEKSLGFGVKLTNTLGTINNKGALPGEEMYMSGRALFPLSINVAAVLSRAFDGKLPISYSGGASQLTIRDIFDTGIRPITMATDLLKPGGYLRLSACMRELEGSDAWGLDHVDVERLNRLAADALTMEYTQKHWKPEERIEVAEDLPLTDCYVAPCVTACAIKQDIPEYIRLLGEHRYADALELIYQRNALPAITGHICDHQCQYNCTRLDYDSALNIRELKKVALEKGWDEYKQRWHKPAGSGSRHPVAVIGAGPAGLAAGYFLARAGHPVTLFEREANAGGVVKNIIPQFRIPAELIQHDIDFVAAHGVKFEYGCSPDLTIEQLKNQGFHYVLIATGTDKNSGVKLAGDNQNVWKSLPFLREYNKGTALKLGKHVVVVGAGNTAMDCARAALRVPGVEKATIVYRRSLQEMPAWREEYEEALHDGVEFRFLNNPERFDADGTLTLRVMSLGEPDEKGRRRPVETNETVTLLVDSLITAIGEQQDTEALNAMGVPLDKNGWPDVDHNGETRLTDVFMIGDVQRGPSSIVAAVGTARRATDAILSRENIRSHQNDKYWNNVNPAEIYQRKGDISITLVNSDDRDAFVAQEAARCLECNYVCSKCVDVCPNRANVSIAVPGFQNRFQTLHLDAYCNECGNCAQFCPWNGKPYKDKITVFSLAQDFDNSSNPGFLVEDCRVRVRLNNQSWVLNIDSKGQFNNVPPELNDMCRIISHVHQHHHYLLGRVEV | soluble |
| MGDTGKLGRIIRHDAFQVWEGDEPPKLRYVFLFRNKIMFTEQDASTSPPSYTHYSSIRLDKYNIRQHTTDEDTIVLQPQEPGLPSFRIKPKDFETSEYVRKAWLRDIAEEQEKYAAERD | soluble |
| MGEAAKDQTEEVIQAWYLDNKEEDQKLPHHKDPKEFVSLDKLAELGVLCWRLDADNYETDEELKRIRESRGYSYMDLCEVCPEKLPNYEEKVKMFFEEHLHIDEEIRYCLAGSGYFDVRDLNDIWIRVWVKKGGLIVFPAGIYHRFTVDSDNYMKAMRLFVGGPVWTAYNRPHDHLPARKAYMKKFLKVIGDRNIDASA | soluble |
| MGENVLICLCGSVNSINISHYIIELKSKFDEVNVIASTNGRKFINGEILKQFCDNYYDEFEDPFLNHVDIANKHDKIIILPATSNTINKIANGICDNLLLTICHTAFEKLSIFPNMNLRMWENPVTQNNIRLLKDYGVSIYPANISESYELASKTFKKNVVAPEPYKVLEFI | not soluble |
| MGEQPIFSTRAHVFQIDPNTKKNWVPTSKHAVTVSYFYDSTRNVYRIISLDGSKAIINSTITPNMTFTKTSQKFGQWADSRANTVYGLGFSSEHHLSKFAEKFQEFKEAAR | soluble |
| MGEQSHEKDHDEAHSYNPFVRSAVEYDADTRLQMAENAASARKLFVSSALKDIIVNPENFYHDFQQSAQMAEDANQRRQVSYNTKREAHIHQLKAQGLPLPSNIPMIEINPTRVTLNMEFESQYYSLMTSDNGDHENVASIMAETNTLIQLPDRSVGGTTPDPFAQQVTITGYFGDVDRARMLMRRNCHFTVFMALSKMKMPLHELQAHVRQNPIQNVEMSFVDAPEKNGIVTTYLRITAREKNQHELIEAAKRLNEILFRESPAPENNFTLHFTLSTYYVDQVLGSSSTAQLMPVIERETTTIISYPCYNNRNETRGNIYEIKVVGNIDNVLKARRYIMDLLPISMCFNIKNTDMAEPSRVSDRNIHMIIDESGIILKMTPSVYEPADLLSGEVPLNCASLRSKEFNIKKLYTAYQKVLSKKFDFIAPQPNDYDNSIWHHSLPANFLKNFNMPCRGELSDGSNGRRHRSSSIASSRSKHSYMSKGKQFSESSGGPSRSHTRVSSFSENSSTVPIMQFPTPHFAPPMLTPHHHMLKYVYLQQHQQAQTFLKGAAGLHPGTHIMFPPPIIVDGSFVSALPFADPVVFDGFPYVHGLFPVNEAEQHRNHRESSPSLRSTQEIRKPSRNMGNRPSSSTGSYYPSTTPRQRVYEQVREDDLRSHIGSRRTSVNGDDQNVESMHDQGYERQYPRQHQRLQKDDQQRWKTGSRGDIHSSRTINVHRDVRNSNEYDFHVGNSGPAKRSPSLEQVQLQMTHHLKLKSNDVDLDHEKLYMHESPHNDSDTTVSASGFGNDLMDGDFVQRFLSNANINESGRRPRTVSCFTEKDGQSARYIDSDGAYSVVDHASTHQSRSYDSFRKVGDNGVTKTILEPRARVEKDYGKISLEHKTKYSNEYGDEEKSAENDTSSLGSRQYRIDPMKRNIYILRNRDFSNSFFYFLHQFSLYMNPICAYRIRLHQFLSYKPSICLSRISLYPRDLYD | not soluble |
| MGESPSNPSGLTFRLADDRKLKAIYVPAAEKASVNLGFLRHALVAGGFADLFIYDHALVELIKRYNAATQEFVYDVGEQRDGTYIIRNTPDNIEAYLTLTRPYGGKPVCPEQLHQALREQGVIYGVLTDEIETAIEAGEATDLLIARGIPPEQGTDAELVSLIPQARDRQPELQDNETVDYRDRGEISSVKAGDPLMRRIPPTPGKPGTNIMGKEVPAPPAKDLKFTPNLPGTTFAPDDPDLLIAAIDGQPVLVANGVMIEPVIKIKNVDLSSGNISFKGSVDISGDITPGMTVRATGDITVGGVVEGATLEAEGDIVVRGGIIGPGENRDPKGKSGQERALIRAKGNIEALFVENSLVEAGGMIQIAGFAMQSNLVAGTQVVVGQEGTTKGHIIGGSCQAVSRIQAVTLGSHAGVHTTVSVGVNPHVKEKLSTVKLKIAEAERELDELTKRLDYFASTPLKGSPEQINETRQAKDKLVTALSELKGERKRLEKRLEQASDALIRVERAVLSGVVISIGTKTLEVKDDMEGGITFRLEDDAIVASQLEHHHHHH | not soluble |
| MGFDESSQMIDPDGELSFFKQNENRTPVTSVPSTSKAVLPFNFDDDEDDEYFKTPKIAEKKKKLPEAMAPVSEDSFDFDIAVPQSIINRIPAKTTAQPAKKYPKIPNLSAKTSSKPTEAPKTENVLKIKSKSQEIAQKPQKSTRISSFFSRTTSSTSNLTEYKRGKSAKMKHISKMEQFFVEHERDIICVGECGLDHTISQFKLTTEDFEEQETVFKWQIDLAKHFEKPLILEIPDISRNVHSRSAARRTIEILLECHVAPDQVVLHAFDGTPGDLKLGLEAGYLFSIPPSFGKSEETTQLIESIPLSQLLLETDSPALGPEKGCKNVPANLRISAEIVAKIKKLEIDDIISATSTNANRIFKF | soluble |
| MGFEQLAELRDRLRAQAAQAKPAQTKSSAGRAKKREAVEPGVEAIWRLQRHFPLAFPKSPAAKVPLKQGILQDAQQHLELLGITAEQLKQAIATWCQGSRYWSCMVEDAPRLDLQGQVAGKVTAEQAVYARRQASRRQREQMREKRAKRAQAGGEAPAATEAPTPEAPATEASPEAN | not soluble |
| MGFHLRGLGGSLKPLPFSTMYLEATGKSIEADLRTVFARDPKLSVMSEPKGAQAVVSVVSENQSKDILTINTGGRINEYQLTYTVVVRTVIGGVPVDPDMVVTVRRSLNYSDNQVLGKQQEEDLLWADARRDAAEQIVRRLAYLKVPAAPLAGPVSVKPDAVPQPLEHHHHHH | soluble |
| MGGDMHEITLCQRALELIEQQAAKHGAKRVTGVWLKIGAFSCVETSSLAFCFDLVCRGSVAEGCKLHLEEQEAECWCETCQQYVTLLTQRVRRCPQCHGDMLQIVADDGLQIRRIEIDQE | not soluble |
